Test results published in publication PMC9934533.

Target: hybrid aspen (poplar) cellulose synthase isoform-8 (CesA8) (hybrid aspen (poplar))
Experiment: cryo-EM structure

stoichiometry N: 3
Substance: hybrid aspen (poplar) cellulose synthase isoform-8 (CesA8) (enzyme)
